Source: publication PMC8557471

Biological target: A. thaliana DCL1 DSRM1 (A. thaliana)
Experiment: BLI

fold higher affinity than HYL1 DSRM1 for the same target: 3.4 fold
Substance: A. thaliana HYL1 DSRM2 (domain or fragment)
